Measured values from US20220162314A1.

Biological target: Recombinant human CD8ab protein (extracellular domains of CD8a and CD8b with leucine zippers and tags) (human) (UniProt P01732)
Assay: ELISA: antigen coated on the plate, antibody titrated, anti-IgG (Fc)-HRP and TMB, A450

Chain of Recombinant human CD8ab protein (extracellular domains of CD8a and CD8b with leucine zippers and tags) (human) (P01732 22-182, chain 1 of 2): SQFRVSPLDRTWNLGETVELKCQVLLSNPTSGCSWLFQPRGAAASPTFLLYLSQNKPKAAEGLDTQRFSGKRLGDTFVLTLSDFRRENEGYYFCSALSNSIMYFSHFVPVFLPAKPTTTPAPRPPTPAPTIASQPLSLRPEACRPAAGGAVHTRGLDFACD
Chain of Recombinant human CD8ab protein (extracellular domains of CD8a and CD8b with leucine zippers and tags) (human) (P10966 22-170, chain 2 of 2, further chain): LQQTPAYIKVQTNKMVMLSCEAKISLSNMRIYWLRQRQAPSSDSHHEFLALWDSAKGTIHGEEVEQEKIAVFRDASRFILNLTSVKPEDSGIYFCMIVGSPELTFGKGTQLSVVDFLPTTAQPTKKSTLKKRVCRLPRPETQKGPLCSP

EC50 (read off the curve): 0.1 nM
Substance: xhCD8a2 (clone SK1, Biolegend) (antibody)
